According to the supplement of paper PMC11246515:
± gives the standard deviation of the averaged measurements.

Assay: total protein half-life in vivo (active degradation + dilution); higher = more stable protein
[1] = E. coli NCM3722 delta-clpP delta-lon delta-hslV, growth: N-lim chemostat, doubling time 6 h
[2] = E. coli NCM3722 delta-hslV, growth: N-lim chemostat, doubling time 6 h
[3] = E. coli NCM3722 delta-lon, growth: N-lim chemostat, doubling time 6 h
[4] = E. coli NCM3722 delta-smpB, growth: N-lim chemostat, doubling time 6 h
[5] = wild type E. coli NCM3722, growth: C-lim chemostat, doubling time 3 h
[6] = wild type E. coli NCM3722, growth: C-lim chemostat, doubling time 6 h
[7] = wild type E. coli NCM3722, growth: N-lim chemostat, doubling time 6 h
[8] = wild type E. coli NCM3722, growth: N-lim chemostat, doubling time 12 h
[9] = wild type E. coli NCM3722, growth: P-lim chemostat, doubling time 6 h
[10] = wild type E. coli NCM3722, growth: P-lim chemostat, doubling time 12 h
[11] = E. coli NCM3722 delta-clpP, growth: N-lim chemostat, doubling time 6 h
[12] = wild type E. coli NCM3722, growth: C-lim chemostat, doubling time 12 h

| Sequence | total protein half-life in vivo [1] | total protein half-life in vivo [2] | total protein half-life in vivo [3] | total protein half-life in vivo [4] | total protein half-life in vivo [5] | total protein half-life in vivo [6] | total protein half-life in vivo [7] | total protein half-life in vivo [8] | total protein half-life in vivo [9] | total protein half-life in vivo [10] | total protein half-life in vivo [11] | total protein half-life in vivo [12] |
| --- | --- | --- | --- | --- | --- | --- | --- | --- | --- | --- | --- | --- |
| MIKNLPQIVLLNIVGLALFLSWYIPVNHGFWLPIDADIFYFFNQKLVESKAFLWLVALTNNRAFDGCSLLAMGMLMLSFWLKENAPGRRRIVIIGLVMLLTAVVLNQLGQALIPVKRASPTLTFTDINRVSELLSVPTKDASRDSFPGDHGMMLLIFSAFMWRYFGKVAGLIALIIFVVFAFPRVMIGAHWFTDIIVGSMTVILIGLPWVLLTPLSDRLITFFDKSLPGKNKHFQNK | 6.44 ± 0.069 h | 5.96 h | 5.5 ± 0.33 h | 4.98 ± 0.75 h | > 4 h | 5.87 ± 0.17 h | 5.91 h | 9.71 h | 5.76 ± 0.068 h | 14.4 h | – | – |
| MIKQTIVALLLSVGASSVFAAGTVKVFSNGSSEAKTLTGAEHLIDLVGQPRLANSWWPGAVISEELATAAALRQQQALLTRLAEQGADSSADDAAAINALRQQIQALKVTGRQKINLDPDIVRVAERGNPPLQGNYTLWVGPPPSTVTLFGLISRPGKQPFTPGRDVASYLSDQSLLSGADRSYAWVVYPDGRTQKAPVAYWNKRHVEPMPGSIIYVGLADSVWSETPDALNADILQTLTQRIPQ | 7.07 h | – | 7.193 ± 0.064 h | 5.1 ± 0.077 h | – | – | – | – | – | – | 6.22 h | – |
| MIKTTPHKIVILMGILLSPSVFATDINVEFTATVKATTCNITLTGNNVTNDGNNNYTLRIPKMGLDKIANKTTESQADFKLVASGCSSGISWIDTTLTGNASSSSPKLIIPQSGDSSSTTSNIGMGFKKRTTDDATFLKPNSAEKIRWSTDEMQPDKGLEMTVALRETDAGQGVPGNFRALATFNFIYQ | – | – | – | – | – | – | – | – | – | – | – | 10.5 h |
| MIKVLFFAQVRELVGTDATEVAADFPTVEALRQHMAAQSDRWALALEDGKLLAAVNQTLVSFDHPLTDGDEVAFFPPVTGG | – | 4.61 ± 0.15 h | 5.83 ± 0.47 h | 4.6 ± 0.21 h | 2.96 ± 0.2 h | 4.76 ± 0.41 h | 4.25 ± 0.17 h | 7.72 ± 0.16 h | 5.12 ± 0.3 h | 11.7 ± 0.55 h | 4.52 ± 0.36 h | 9.64 ± 0.42 h |
| MIKVYGVPGWGSTISELMLTLADIPYQFVDVSGFDHEGASRELLKTLNPLCQVPTLALENDEIMTETAAIALMVLDRRPDLAPPVGRAERQLFQRLLVWLVANVYPTFTFADYPERWAPDAPEQLKKNVIEYRKSLYIWLNSQLTAEPYAFGEQLTLVDCYLCTMRTWGPGHEWFQDNATNISAIADAVCQLPKLQEVLKRNEII | 5.47 ± 0.78 h | 4.93 ± 0.096 h | 4.6 h | 4.48 ± 0.6 h | – | 4.99 h | 4.76 h | – | 6.17 h | 12.2 h | 4.57 ± 0.21 h | – |
| MILLIDNYDSFTWNLYQYFCELGADVLVKRNDALTLADIDALKPQKIVISPGPCTPDEAGISLDVIRHYAGRLPILGVCLGHQAMAQAFGGKVVRAAKVMHGKTSPITHNGEGVFRGLANPLTVTRYHSLVVEPDSLPACFDVTAWSETREIMGIRHRQWDLEGVQFHPESILSEQGHQLLANFLHR | 5.21 ± 0.68 h | 3.72 ± 1.2 h | 4.94 ± 0.68 h | 4.35 ± 0.22 h | 3.31 ± 0.049 h | 5.88 ± 0.4 h | – | 8.41 ± 0.11 h | 6.18 ± 0.066 h | 12.9 ± 0.99 h | 5.02 h | 10 h |
| MILSAFSLEGKVAVVTGCDTGLGQGMALGLAQAGCDIVGINIVEPTETIEQVTALGRRFLSLTADLRKIDGIPALLDRAVAEFGHIDILVNNAGLIRREDALEFSEKDWDDVMNLNIKSVFFMSQAAAKHFIAQGNGGKIINIASMLSFQGGIRVPSYTASKSGVMGVTRLMANEWAKHNINVNAIAPGYMATNNTQQLRADEQRSAEILDRIPAGRWGLPSDLMGPIVFLASSASDYVNGYTIAVDGGWLAR | 3.57 ± 0.82 h | 2.8 ± 0.69 h | 2.48 ± 0.36 h | 2.31 ± 0.11 h | 2.75 ± 0.077 h | 4.15 ± 0.16 h | 2.385 ± 0.018 h | 3.87 ± 0.81 h | 5.03 ± 0.081 h | 10.5 ± 0.36 h | 2.06 ± 0.13 h | 7.26 ± 0.34 h |
| MINSPRVCIQVQSVYIEAQSSPDNERYVFAYTVTIRNLGRAPVQLLGRYWLITNGNGRETEVQGEGVVGVQPLIAPGEEYQYTSGAIIETPLGTMQGHYEMIDENGVPFSIDIPVFRLAVPTLIH | 6.35 ± 0.25 h | 0.615 h | 1.4 h | 1.24 ± 0.41 h | 1.4 ± 0.14 h | 2.43 h | 1.65 h | 1.98 h | 2.29 ± 0.19 h | 4.37 ± 0.13 h | 1.66 ± 0.39 h | 3.11 ± 0.32 h |
| MINVLIIDDDAMVAELNRRYVAQIPGFQCCGTASTLEKAKEIIFNSDTPIDLILLDIYMQKENGLDLLPVLHNARCKSDVIVISSAADAATIKDSLHYGVVDYLIKPFQASRFEEALTGWRQKKMALEKHQYYDQAELDQLIHGSSSNEQDPRRLPKGLTPQTLRTLCQWIDAHQDYEFSTDELANEVNISRVSCRKYLIWLVNCHILFTSIHYGVTGRPVYRYRIQAEHYSLLKQYCQ [P0AD01] | 5.41 ± 0.33 h | 4.1 ± 0.41 h | 3.42 ± 0.16 h | 3.1 ± 0.27 h | 1.69 ± 0.17 h | 3.27 ± 0.38 h | 3.51 ± 0.13 h | 5.76 ± 0.53 h | 1.58 h | 3.84 ± 0.61 h | 2.86 h | 5.01 ± 0.094 h |
